System: MS2 coat protein
Test: apparent KD of MS2 coat protein; designed switch direction (-1 OFF switch, 1 ON switch): -1; higher = weaker reporter binding
Method in brief: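 An oligonucleotide input, 200 uM small-molecule ligand, or no input was present during titration of SNAP-549-labelled MS2 coat protein, which was doubled from 0.7 or 1.5 nM to 3 µM. Designed RNA switches had been transcribed on Illumina chips by stalled E. coli RNA polymerase. Apparent KD per design is the median over clusters of curves fitted to normalised cluster fluorescence.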

[1] = input ligand: microRNA oligo, concentration not stated
[2] = Eterna round: R95, input ligand: microRNA oligo, concentration not stated
[3] = Eterna round: R95, input ligand: FMN 200 uM
[4] = Eterna round: R95, input ligand: none

Sequence	apparent KD of MS2 coat protein (input ligand: FMN 200 uM)	apparent KD of MS2 coat protein [1]	apparent KD of MS2 coat protein (input ligand: none)	apparent KD of MS2 coat protein [2]	apparent KD of MS2 coat protein [3]	apparent KD of MS2 coat protein [4]
UGCUACAUGAGGAUCACCCAUGUUAUUUGGGAUUUUUUAGGACAGGAUAUGAUUGUAUUGUUUUUUCAGAAGGGUCAUUACUUU [JR_ExcNG3_Sub013] (Eterna round: R96, puzzle: Exclusion NG 3)	0.367 µM	0.316 µM	0.347 µM	–	–	–
AAUUAAUUAAUUAAUUAAUACAUGAGGAUCACCCAUGUAAUUUAAGAUCCUUAUACAAGCUUUGAUCUCGUCUUAUA [Stov1/5-A1] (Eterna round: R97, puzzle: Sensor, turn-off variant 1)	0.0945 µM	–	0.106 µM	–	–	–
CGAUGUUAUGUCAGGAUAUGCAUUGCGAAAGCAAUGCAGAAGGGACAUGAGGAUCACCCAUGUCCUAACCAUCG [Omei A 4] (puzzle: Brourd's mod of Exclusion 4)	–	–	–	0.0111 µM	–	–
GUUAAACAUGAGGAUCACCCAUGUAAGGAUAUGCUGCGGUCGAGAUGAAGUGACUGCAGCAGAAGGUACAAAUG [Mat - Mod of JL D60] (puzzle: Exclusion 1)	–	–	–	0.127 µM	0.162 µM	0.133 µM
AUACAGGAUGUCAGGAUAUGUUGUAGGUUCCGACGACAGAAGGGACAUGAGGAUCACCCAUGUAGGCCUUUGCU [BmEX4 C.7] (Eterna round: R97, puzzle: Brourd's mod of Exclusion 4)	0.0314 µM	–	0.0151 µM	–	–	–
ACAAGCGAAAGGCUCGUCUUAUUUUUGUAGAGGUUCUAAACAUGAGGAUCACCCAUGUAGUGGUUAUGGUGGAGGUA [JR_SV3TOV2_Sub070] (puzzle: Sensor v3, turn-off variant 2)	–	–	–	0.0644 µM	0.0571 µM	0.0746 µM
ACAUGAGGAUCACCCAUGUAAACAUGAUGGCUGAUGUAGAGCUAGGAUAUGAGUGGCUUUCUAUCUCAGAAGGAGCUUGACUGG [Deportation 43 - Jieux - Exclusion NG 3] (Eterna round: R96, puzzle: Exclusion NG 3)	0.0308 µM	0.0228 µM	0.0357 µM	–	–	–
GGACCAUAUCAGGAUAUGACUAGCCUCGGCUAGUCAGAAGGGAUGACAUGAGGAUCACCCAUGUGAUCAGGUCC [E6/1-C2] (Eterna round: R97, puzzle: Exclusion 6)	0.0595 µM	–	0.0367 µM	–	–	–
CUACAUCGAGGAUAUGCAAACGUAAACAUGAGGAUCACCCAUGUGACGUCAUAUUACGUAGUAGAAGGCGAAAAUA [Anlein] (Eterna round: R97, puzzle: Exclusion 5)	0.0202 µM	–	0.0158 µM	–	–	–
AAUUUACAUGAGGAUCACCCAUGUGAGGAUAUAUACAAAGAAGUGUUAUUAAGAAUGUAUAGAAGGCGCGUGAU [JR_Exc1_Sub039] (Eterna round: R97, puzzle: Exclusion 1)	0.0736 µM	–	0.062 µM	–	–	–
GCAGCAUAGUUUACUAACUGUUACAUGAGGAUCACCCAUGUCUAGGAUAUGGUCUGGAUUACAGGCCAGAAGGAGAAAAGCUGC [Eli exng3 - 036] (Eterna round: R96, puzzle: Exclusion NG 3)	0.0153 µM	0.013 µM	0.0168 µM	–	–	–
GUUGUUGCGCAGGAUAUCCAGCGACUUGUCGAAGGAGAAGGGCGCACAUGAGGAUCACCCAUGUGCCUCUGUAA [EX6 B.20] (Eterna round: R97, puzzle: Exclusion 6)	0.043 µM	–	0.0186 µM	–	–	–
ACAAGCUUCGAUAUCCUUAACAUGAGGAUCACCCAUGUUCGUCUUAUGAUGGUCUGAUCCCUGAGGAUCGGACCGUU [JL-sv1-2.09 Brourd Mod] (puzzle: Sensor v3, turn-off variant 1)	–	–	–	0.0623 µM	0.0409 µM	0.0404 µM
AAGUACCGUCACGAUAGUGAUGGUACAGCAAGCAUGUAAACAUGAGGAUCACCCAUGUCCUCAAUUGCUCGUCUUAU [Sensor 3 - 70] (puzzle: Sensor v3, turn-off variant 2)	–	–	–	0.785 µM	0.725 µM	0.764 µM
AAACAAACGGCAGGAUAUCCUCGUCAACACCACAAGUCCACUCGGACAUGAGGAUCACCCAUGUAGGAGAAGGGUCAGAAAUAC [ExNG2 4th] (Eterna round: R96, puzzle: Exclusion NG 2)	0.0372 µM	0.0246 µM	0.0371 µM	–	–	–
AUUAUAACAUAGGAUAUCGAAUUUAUCAUUUAACGAGAAGGAUGAACAUGAGGAUCACCCAUGUGGUAUCAUGG [Mat - Exclusion 6 - JL Mod - D3] (puzzle: Exclusion 6)	–	–	–	0.173 µM	0.055 µM	0.0335 µM
UAGAUGGGAGGAUAUACGUAGAUACAGAUUCGUGUAGUGCUACAUGAGGAUCACCCAUGUAGAAGGCCCGUCUU [JL-ex2-2.23 Mayanne mod] (puzzle: Exclusion 2)	–	–	–	0.0131 µM	–	–
UUAUUACGAGGAUAUCGUUUUUAUCACAUGAGGAUCACCCAUGUUGUUUAUGUUUCGUUUCGAGAAGGCGUUUGUU [JR_E5_Sub066] (puzzle: Exclusion 5)	–	–	–	0.0244 µM	–	–
AUUUAGAGAGGAUAUAUUAUGUGAAACAUGAGGAUCACCCAUGUAAUAUGAUGGAUGUAAAUAGAAGGCUCAUUUA [Mat - Exclusion 5 - JL mod - D23] (puzzle: Exclusion 5)	–	–	–	0.0435 µM	0.0329 µM	0.0564 µM
GAGGCAUGCUGAGGUCCACACAUGAGGAUCACCCAUGUAAUGACAAGCUUUUUCCUCGUCUUAUCGCUAUCGCGUUC [Dilaenla] (puzzle: Sensor v3, turn-off variant 1)	–	–	–	0.0284 µM	0.0155 µM	0.015 µM
UUUUAACAUGAGGAUCACCCAUGUGAGGAUAUCGAAAUUUAUAUUAAUAUUUAUUUUACGAGAAGGCACAUUUU [JMF 66] (puzzle: Exclusion 1)	–	–	–	0.104 µM	–	–
ACAUGAGGAUCACCCAUGUCCGUCUGGUCUGUCUCGGCUGUCGAGGAUAUAGCUCGGUAUCCGCGCUAGAAGGCGGGAGUCGGU [Aenatbe mod 93] (Eterna round: R96, puzzle: Exclusion NG 3)	0.0736 µM	0.0667 µM	0.0885 µM	–	–	–
AGUGUGUGGCAGGAUAUGCGAUUUGUAGGUGAAGCAGAAGGGUCUACAUGAGGAUCACCCAUGUGUGCGGUUGA [Ex6 #18] (Eterna round: R97, puzzle: Exclusion 6)	0.457 µM	–	0.216 µM	–	–	–
CCGUCCCGCCCUGGGUGGGACAUGAGGAUCACCCAUGUGGGUUUUCUUUCUUUCACCCGGGCGGGCGGGCGGGCUGG [sensor,turn-off variant1(1)] (Eterna round: R97, puzzle: Sensor, turn-off variant 1)	0.0204 µM	–	0.0548 µM	–	–	–
CUGGUCCGAGGAUAUAUUAUGUGAUACAUGAGGAUCACCCAUGUUAUAUGAUGGAUGUAAAUAGAAGGCGGACUAG [JL-ex5-3.15] (puzzle: Exclusion 5)	–	–	–	0.0434 µM	0.048 µM	0.0585 µM

Source: the supplement of paper PMC9170038
